This passage reports EC50 results from patent US20230357429A1 (JANUX THERAPEUTICS, published 2023).

One may read the EC50 as the midpoint of the concentration-response curve.

For one assay, the target named is T1, Peptide-45 (cysteine pairing not given here; also: biotinylated, site not given here).
T1 peptide: VDFCYQYGWPICSRVD
Put plainly: ELISA, Fab on captured biotin-peptide.

In the next assay the target is T2, Peptide-47 (cysteine pairing not given here; also: biotinylated, site not given here).
T2 peptide: VDFCYQYGWPICSRLY
Nature of the assay: ELISA, Fab on captured biotin-peptide.

The target of a further assay is T3, Peptide-61 (cysteine pairing not given here; also: biotinylated, site not given here).
T3 peptide: VDFCALYHWPVCGL
Put plainly: ELISA, Fab on captured biotin-peptide. Background: An ELISA detects its analyte on a solid surface through an enzyme-linked reagent.

The next assay deals with T4, Peptide-59 (cysteine pairing not given here; also: biotinylated, site not given here).
T4 peptide: VDFCALYNWPVCAI
Nature of the assay: ELISA, Fab on captured biotin-peptide.

The next assay has as its target T5, Peptide-56 (cysteine pairing not given here; also: biotinylated, site not given here).
T5 peptide: VDFCYQYGWPICSRV
Put plainly: ELISA, Fab on captured biotin-peptide.

Another assay deals with T6, Peptide-48 (cysteine pairing not given here; also: biotinylated, site not given here).
T6 peptide: VDFCYMYKWPVCYP
Nature of the assay: ELISA, Fab on captured biotin-peptide.

The target in another assay is T7, Peptide-50 (cysteine pairing not given here; also: biotinylated, site not given here).
T7 peptide: VDFCAIYSWPICKI
Nature of the assay: ELISA, Fab on captured biotin-peptide.

A further assay has as its target T8, Peptide-51 (cysteine pairing not given here; also: biotinylated, site not given here).
T8 peptide: VDFCGLYHWPICYQV
Nature of the assay: ELISA, Fab on captured biotin-peptide.

Assay [1] has as its target T9, Peptide-8 (cysteine pairing not given here; also: biotinylated, site not given here).
T9 peptide: VDFCGLYHWPICYQ
Put plainly: ELISA, Fab on captured biotin-peptide.

The next assay addresses T10, Peptide-54 (cysteine pairing not given here; also: biotinylated, site not given here).
T10 peptide: VDFCYRYSWPVCWA
Put plainly: ELISA, Fab on captured biotin-peptide.

Another assay concerns the target T11, Peptide-60 (cysteine pairing not given here; also: biotinylated, site not given here).
T11 peptide: VDFCNLYHWPICAI
Put plainly: ELISA, Fab on captured biotin-peptide.

In the next assay the target is T12, Peptide-49 (cysteine pairing not given here; also: biotinylated, site not given here).
T12 peptide: IDFCLLYKWPVCEL
Put plainly: ELISA, Fab on captured biotin-peptide.

The target of the next assay is T13, Peptide-57 (cysteine pairing not given here; also: biotinylated, site not given here).
T13 peptide: IDFCYRYGWPVCQT
Nature of the assay: ELISA, Fab on captured biotin-peptide.

In another assay the target is T14, Peptide-53 (cysteine pairing not given here; also: biotinylated, site not given here).
T14 peptide: IDFCRVYDWPVCSL
Put plainly: ELISA, Fab on captured biotin-peptide.

For the next assay, the target named is T15, Peptide-55 (cysteine pairing not given here; also: biotinylated, site not given here).
T15 peptide: VDFCYKYNWPICSR
Put plainly: ELISA, Fab on captured biotin-peptide.

For assay [2], the target named is T16, Peptide-3 (cysteine pairing not given here; also: biotinylated, site not given here).
T16 peptide: IDFCMLYNWPICAG
Put plainly: ELISA, Fab on captured biotin-peptide.

Assay [3] has as its target T17, Peptide-43 (cysteine pairing not given here; also: biotinylated, site not given here).
T17 peptide: VDFCALYHWPICYQ
Put plainly: ELISA, Fab on captured biotin-peptide.

For the next assay, the target named is T18, Peptide-42 (cysteine pairing not given here; also: biotinylated, site not given here).
T18 peptide: IDFCAMYHWPICDT
Put plainly: ELISA, Fab on captured biotin-peptide.

The next assay has as its target T19, Peptide-36 (cysteine pairing not given here; also: biotinylated, site not given here).
T19 peptide: VDFCYQYGWPICSR
Put plainly: ELISA, Fab on captured biotin-peptide.

Another assay deals with T20, Peptide-35 (cysteine pairing not given here; also: biotinylated, site not given here).
T20 peptide: EDFCYWYQWPICSD
Nature of the assay: ELISA, Fab on captured biotin-peptide.

The target in a further assay is T21, Peptide-38 (cysteine pairing not given here; also: biotinylated, site not given here).
T21 peptide: VDFCSIYHWPVCYV
Put plainly: ELISA, Fab on captured biotin-peptide.

Assay [4] concerns the target T9, Peptide-8. Put plainly: ELISA, Fab on captured biotin-peptide.
Another assay concerns the target T22, Peptide-41 (cysteine pairing not given here; also: biotinylated, site not given here).
T22 peptide: VDFCGLYHWPICYQVY
Put plainly: ELISA, Fab on captured biotin-peptide.

A further assay addresses T23, Peptide-62 (cysteine pairing not given here; also: biotinylated, site not given here).
T23 peptide: IDFCAVYKWPVCQV
Put plainly: ELISA, Fab on captured biotin-peptide.

The target of a further assay is T24, Peptide-33 (cysteine pairing not given here; also: biotinylated, site not given here).
T24 peptide: PDFCYMYNWPVCVT
Put plainly: ELISA, Fab on captured biotin-peptide.

For another assay, the target named is T25, Peptide-40 (cysteine pairing not given here; also: biotinylated, site not given here).
T25 peptide: VDFCYLYSWPICTK
Put plainly: ELISA, Fab on captured biotin-peptide.

Assay [5] addresses T16, Peptide-3. Nature of the assay: ELISA, Fab on captured biotin-peptide.
The target of another assay is T26, Peptide-63 (cysteine pairing not given here; also: biotinylated, site not given here).
T26 peptide: IDFCLIYNWPVCDT
Put plainly: ELISA, Fab on captured biotin-peptide.

Assay [6] addresses T17, Peptide-43. Nature of the assay: ELISA, Fab on captured biotin-peptide.
The target of assay [7] is T27, Human TROP2 ECD (31-274 AA), biotinylated (human, UniProt P09758 31-274, biotinylated (site not stated)).
T27 construct: captured on neutravidin plates; also called TROP2-biotin; Trop2-biotin
T27 sequence: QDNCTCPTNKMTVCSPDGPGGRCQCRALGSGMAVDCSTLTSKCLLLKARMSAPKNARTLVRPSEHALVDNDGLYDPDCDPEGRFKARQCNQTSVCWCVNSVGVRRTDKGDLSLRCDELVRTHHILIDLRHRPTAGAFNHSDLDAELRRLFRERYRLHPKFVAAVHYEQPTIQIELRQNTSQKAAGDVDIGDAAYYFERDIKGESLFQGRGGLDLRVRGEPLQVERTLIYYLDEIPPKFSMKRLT
Nature of the assay: ELISA, Fab on captured biotin-TROP2.

Residue numbers refer to the chain shown, from its start. Numbers in names are those of the source. Like-named read-outs stand apart in the source and are kept apart here. Where no end group is shown, it is not given here.

B1: TBD-1 wt (Fab, V domains shown)
VH: QVQLQQSGSELKKPGASVKVSCKASGYTFTNYGMNWVKQAPGQGLKWMGWINTYTGEPTYTDDFKGRFAFSLDTSVSTAYLQISSLKADDTAVYFCARGGFGSSYWYFDVWGQGSLVTVSS
VL: DIQLTQSPSSLSASVGDRVSITCKASQDVSIAVAWYQQKPGKAPKLLIYSASYRYTGVPDRFSGSGSGTDFTLTISSLQPEDFAVYYCQQHYITPLTFGAGTKVEIKR
notes: Fab; the heavy chain entry is VH-CH1; also called wild-type anti-TROP2 Fab (hRS7); TROP2 Fab
Turning to B1, the EC50 in the assay with Peptide-45 is 50.8 nM; with Peptide-47 it was 113 nM; in the assay with Peptide-61, 191 nM; in the assay with Peptide-59, 61.1 nM; with Peptide-56, 52.8 nM; in the assay with Peptide-48, 21.5 nM. The EC50 in the assay with Peptide-50 was found to be 96.2 nM; with Peptide-51, 45.1 nM; with Peptide-8 [1] it was 55.6 nM; with Peptide-54 it was 63.5 nM; with Peptide-60 it was 47.8 nM; with Peptide-49, 296 nM. The EC50 was 25.7 nM in the assay with Peptide-57; 45.3 nM in the assay with Peptide-53; 15.7 nM with Peptide-55; 91.5 nM with Peptide-3 [2]; 28.6 nM in the assay with Peptide-43 [3]; 28.5 nM in the assay with Peptide-42. Moreover, the EC50 with Peptide-36 stood at 41.4 nM; with Peptide-35 it was 261 nM; with Peptide-38, 178 nM; in the assay with Peptide-8 [4], 35.2 nM; in the assay with Peptide-41, 102 nM; in the assay with Peptide-62, 81.4 nM. Also, the EC50 amounted to 29.7 nM in the assay with Peptide-33; 39.7 nM in the assay with Peptide-40; 164 nM with Peptide-3 [5]; 162 nM with Peptide-63; 27.5 nM with Peptide-43 [6].

B2: TBD-17 (HC S104A) (Fab, V domains shown)
VH: B1 VH with S104A
VL: B1 VL
notes: Fab; also called HC S104A mutant
As to B2, the EC50 stood at 0.3 nM in [7]; 5.5 nM with Peptide-42; 30.2 nM with Peptide-36; 215 nM in the assay with Peptide-35; 31.8 nM in the assay with Peptide-38; 8 nM with Peptide-8 [4]. The EC50 with Peptide-41 amounted to 28.9 nM; in the assay with Peptide-62, 9.2 nM; in the assay with Peptide-33, 24.1 nM; in the assay with Peptide-40, 27 nM; with Peptide-3 [5], 23 nM; with Peptide-63, 30 nM. The molecule further registered an EC50 with Peptide-43 [6] of 4.9 nM.

B3: TBD-21 (HC F108A) (Fab, V domains shown)
VH: B1 VH with F108A
VL: B1 VL
notes: Fab; also called HC F108A mutant
As to B3, the EC50 in assay [7] was determined as 4.2 nM; with Peptide-42, 13.8 nM; in the assay with Peptide-36, 27 nM; with Peptide-35, 331 nM; in the assay with Peptide-38, 26.1 nM; in the assay with Peptide-8 [4], 12.9 nM. Moreover, the EC50 with Peptide-41 was 47.2 nM; with Peptide-62, 14.3 nM; with Peptide-33, 22.9 nM; with Peptide-40, 45.8 nM; with Peptide-3 [5], 30.8 nM; in the assay with Peptide-63 it was 39.7 nM. In the assay with Peptide-43 [6], this molecule displayed an EC50 of 12 nM.

B4: TBD-6 (LC I93A) (Fab, V domains shown)
VH: B1 VH
VL: B1 VL with I93A
notes: Fab; also called LC I93A mutant
B4: the EC50 stood at 32.6 nM with Peptide-45; 79.9 nM with Peptide-47; 11.8 nM in the assay with Peptide-61; 5.4 nM in the assay with Peptide-59; 33.3 nM in the assay with Peptide-56; 12.2 nM with Peptide-48. Also, the EC50 with Peptide-50 is 21.9 nM; with Peptide-51, 13.5 nM; in the assay with Peptide-8 [1] it was 12.2 nM; with Peptide-54 it was 30 nM; with Peptide-60, 7.7 nM; with Peptide-49 it was 18.3 nM. In addition, the EC50 with Peptide-57 is 9.2 nM; with Peptide-53, 4.4 nM; in the assay with Peptide-55 it was 6.1 nM; with Peptide-3 [2], 12.5 nM; with Peptide-43 [3] it was 5.3 nM; in [7], 0.3 nM. Moreover, the EC50 in the assay with Peptide-42 worked out at 5.7 nM; with Peptide-36 it was 23.8 nM; with Peptide-35, 131 nM; in the assay with Peptide-38, 9.8 nM; with Peptide-8 [4], 8.5 nM; in the assay with Peptide-41, 41 nM. Also, the EC50 was determined as 5.1 nM with Peptide-62; 9.6 nM with Peptide-33; 30.4 nM with Peptide-40; 18.3 nM with Peptide-3 [5]; 9.5 nM with Peptide-63; 7.2 nM in the assay with Peptide-43 [6].

B5: TBD-11 (HC R98A) (Fab, V domains shown)
VH: B1 VH with R98A
VL: B1 VL
notes: Fab; also called HC R98A mutant
As to B5, the EC50 stood at 138 nM in the assay with Peptide-45; 304 nM with Peptide-47; 272 nM with Peptide-61; 92.8 nM with Peptide-59; 127 nM with Peptide-56; 42.4 nM with Peptide-48. Also, the EC50 came out at 35.5 nM with Peptide-50; 244 nM with Peptide-51; 319 nM with Peptide-8 [1]; 147 nM with Peptide-54; 60.4 nM with Peptide-60; 130 nM in the assay with Peptide-49. Also, the EC50 in the assay with Peptide-57 was 85.6 nM; in the assay with Peptide-53 it was 32.5 nM; in the assay with Peptide-55, 36.8 nM; with Peptide-3 [2], 296 nM; with Peptide-43 [3], 43.6 nM; in assay [7], 3.4 nM. In addition, the EC50 was 86.4 nM in the assay with Peptide-42; 60.1 nM in the assay with Peptide-36; 290 nM with Peptide-38; 86.4 nM in the assay with Peptide-8 [4]; 159 nM with Peptide-41; 136 nM with Peptide-62. The EC50 is 144 nM with Peptide-33; 310 nM with Peptide-40; 296 nM in the assay with Peptide-3 [5]; 229 nM in the assay with Peptide-63; 77.5 nM in the assay with Peptide-43 [6].
